Results published in the domain aggregation screens of Martell et al. (2025).

Experiment: soluble fraction after stress (log2 fold change); higher = more stays soluble; pooled small domains, quantitative proteomics
Details: stress: 50 degC
How it was run: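 The stress applied to every library was 50°C. These custom libraries of small protein domains were pooled and measured at high throughput with quantitative proteomics as the read-out. Aggregation propensity is expressed as the base-two logarithm of the fold change in how much of each protein remains soluble. The higher the value, the more of that protein stays in solution.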

Sequence	soluble fraction (log2)
HMQLPDLDEIRQMRKRLDLSQRELAALAGVSQSLIAKIEKGSIDPSYDNVRKIFNAFENILKKRALE	-0.255
HMPNDYRKKLEILAKEKGAEYLHTMLTEVDPKSALQIHTNNIKRTIRALEFYHQTGMKISEHNEAEREK	0.0272
HMTGSALDATIEKLLDLGSKAGSVTEDEIQIVLKNVDVTDAQLSSIYQFLRDRGVEIVSATEDDD	0.0977
HMTSPQGIERFLASGVIEGVGKAMAARIVAVFGGQTLEIIEKQPHRLREVRGIGVKTAEKIHASYQEKA	-0.81
HMETYEFNITDKEQTGMRVDKLLPELNSDWSRNQIQDWIKAGLVVANDKVVKSNYKVKLNDHIVVTEKEV	0.26
HMVELVKVPALQGETVDEAIADIKDAGLEPGQVRYVESDLPKDTVTYQSVDAGEQVKAGTVINLQASKGP	0.251
HMDLTPEEQMDLYRLLDSLPTEERTYLILHYFEERSFPEMAEILSMPEAKLKSRFYRILHRLRAHL	-2.56
HMNERLKQLRLSLNLNQEEFGKWLGISKSGVSDIESGRRKVTEQHIIMLSNHNISEKWLRTGEGEMFV	-0.0803
HMRSFRIGGLVEQGSIARDGQSLTVRFAVTDLAHKIPVTYTGLLPDLFKEGKGVVAEGKLGPDGVFHASQV	-0.0153
HMNVGKYILTLAAKEGYSQSDVARRTGISRQMLSYIIAGERKLTLPQALKIESLLSLKTGTLILMQDED	-3.41
HMKEVELENMIKAKGFKDAAVLVDERSVTVIVESERLAAGDSASIKELVSRGTGVDPQNVVII	-0.107
HMQQSVSSLVRRYMLQTIPGINFSLKSTALALNMSDRTLQRKLLSENTSYQIILDDVRKELAIKYLKE	-3.19
HMFNTWLGEIRSNTGANVRSGPDASAAIVDARPNETVVRVIGQSGNWLQIGDKQFVAQSLVAP	-0.0505
HMKKPRKTSRKSIENAAIFYLQRFSSSIENLRRVLMRRVYRSAQYHNTKPEEDAKIVDSIIYRLIETGVL	-0.0617
HMHSPTFYVHVVGQVKVPGVYELEVGSRLFDAVIAAGGFKDDADQASVNLARPLSDGEQIVVLKLGDQ	-0.251
HMSKKLLVLQTSDDAKAKDVLSQNGYQLDDGDKLSIIETEQTKMADVIKLLSDNAIDIEDVQHVH	0.217
HMRIFDDNMIFPTEAEISAALKRLVMDLPKVGFLQGHGERAVDNVGERAYSMFTHANNFRYALINQGFVT	-0.176
HMAGTWQDQGNGQWKYQNDDGSYATGWIEDSGKSYYLDANGIMLANTTTPDGKQVGPDGALIP	-0.141
HMLLSHTAQREGELLTFLRGELALSSGLVKRLKWQNAFFLDGAPVHTNARVKPGQEITVRIEE	-0.143
HMQIYLTPEQFKIIDFMEQMGKITVKDVMDILNIPKRTAQLHLQKLKTLKMIAQTGKGPSSAYLL	-0.959
HMTDFESYTVRVTATNLNIRKGAGTNFHSAGYIKPGVYTIVEEADGKGATRWGKLKSGMGWISLDYAKK	-0.763
HMESMIGSLRGRLLELFGDGEVLIEVGGVGYRVIVTPTTTVRLGDVGGDVFVHVHHHIREADQTLYGF	-0.234
HMYIKYETVLQNITERIAALRKNGTLVLDGERTLAAEFDASRGTIRKAMRQLEENGTILREGYVTRILPE	-1.61

Sequence	soluble fraction (log2)
HMQVRVERSRDKVVISGVNYYIHPVRKGETVYSIARAYGITTQDLVRENPSAAEGLKEGQSIRIPERLVD	0.0927
HMNETNKMPNLVNQTDSSAIAQLNAMELGLKITTKEESSETVLAGYVIRTEPAADTELTKNQAVTVYVS	0.00616
HMDVLIQEIGKRLRIQRLAMGLTQEELAKRAGISLSTLKLMEQQGKGSLQRLAKVAVVLDLDGDLRGLF	-2.42
HMEFYYSDLVGMIVYDTGGNELGKVQAVLNHGAGDLLEIHGVNLKTSILIPFTKEAVPTVDIAARRIVTDP	0.0733
HMSVLSEQIKEQLMEDIFHKKYKAGDRIVESALARELGVSQASVREALRSLIAMGFLENEPFKGITVR	0.0703
HMTIYLSENIKRLRLEKELTQETLSEFLGVTSQSVSNWERGESYPDITMLPEIADFFKVSVDELLGVNRAE	-0.889
HMSGLEDIKKKILEDAGIKKGSVKFVKVDKDYDDGIWKYEIDFVYDGKEYEYEIEVETGKILSRKTEKSD	-0.317
HMDGASVQRITELTATLNRYRHEYYNLAKPSVSDAVYDRLFDELAALEQKTGIVLSNSPTQTV	-0.247
HMTIDANAIEKMVLDLIGEHPNEWGRYRDGDKKVQGFFVGQIMKATSGQADGKIVNQILSQHAEA	-0.115
HMSTMLPFVMRELVELVMKKKALPLGDALYYIYSSKLYKSLLDKSTKLWYSSTLSLYETLEKEKTEEKRRY	-1.79
HMHTSEDLEKLLTRYFQSHESINRQQFEQLSGFTRTTASRRLKALVEAGKLKNIGLHHFPVYKPTEGNF	-0.354
HMKMTIEDLITQAKESNAAENYYEAFQLYSKAIDVLPNDPDLYSARGVVLFHLDRKEDSLIDMNKSVD	-0.2
HMKDITMPNVYGLTLEMAEQTLKQSELSIFKAMKINSDTVEEGKVIYTDPKANSIVSGDQEITIYVSDGP	0.0645
HMPIHAGERLTLRLAGEGREAGQAIGYLEDGTLVIVERARHLIGQDVTVEVTRTLQTAGGRLVFAHLVE	-0.531
HMTELKKTAVDTWVKDLGTEQALAKLDTLAVVKLRRLAREYKAFGIAGRAISKADKGMLLAEFRAYYEN	-1.86
HMPLSDAEKAAAIATQAKERALKLSPEMISYLLRHASRDMRTLSMLVVALDQYTLEQKRPVTLPLLRELLS	-0.098
HMKYYIYQGVGASGELTKIAEVTDQKTYTVTGLQAKTTYRFAVSSYNGLRESTKSNIVTVTT	-0.313
HMRIEYYDDEELDRYIGTPASGYREAAVEEFREILLTLDADDVPGWVRSLQLRGIEFPESLRPELYL	-0.575
HMLSPPWYEYHRKVQAMFGRDPEVHIKDLDDLGDGKFSYMILVYNKEKAEAIKAILPQKVEMGNVTIETAI	0.361
HMFDLSQRQEQIIEIVRKHGPITGEKIADLLYVTRAALRPDLAILTMSGYLEAKPRVGYTYK	-1.2
HMEKSSALRAKEAFMALYHDGKFKPGTKIPSESNMAELLGVSRETWRKALALLRGDGVLYSKHGSGTYLLE	0.11
HMIQLKEHDVVRLRETIVENDEKIPAGTRGVVLSVYDGGRAFAVEVADDRAASAIITAFRDQLEVY	-0.136
HMDDTVILPIQINGKRRAEISVPKAMPASEVEKLALANEDVLRFLAGQPIKKLIVVPGRIINVV	0.179

Sequence	soluble fraction (log2)
HMRESDQSTVELSLERTIQEALMVNPRTSSVEEFSFEWGTGRVKVSFIVYSVDGEPFTVDSIIE	-2.27
HMEFLDLEIDVDATDGRLLAFLAAKGEVVSQTFNDTIITVRVRMPTGAMGQVHRSALAIRPA	-0.507
HMFNDGEIAIYTDPRGDAGETQIWKRGKGYYGQNDSFDFEAKDKKELEMKLKRWGYVLIAGSIDE	-0.291
HMELSTQERIQILLEILNQREIISFSQTLRKKEGKKGVVVTFLASLELAKDGYVTLVQNKSDQIYLRSN	-0.7
HMVVRKHDRYYTPEHRKLLMDTYERTNKYPTKQDMSELAKIIGVLPIKILWWYTHRRRQDRRKGEESSSP	-0.0096
HMGIAKYRQVTEWIQNRIATGELNRGDQIESENDISRTFGISRQTVRHALGLLEQQGILTRIQGRGTFVRD	-0.661
HMEALPELTDRQRQVYEFIEARIAEWGYPPTIREIGQHLGIKSTNGVADHLKALKRKGYLQQ	-0.0721
HMEDPPISQEQRQALFKMAHDHLGKDEGNKAILTLIQSHGLNSTTGMKVSTYNTIMEELVSTIQSLAA	-0.0686
HMRTNNEITSYKLKSGKKRWKFQTYLGLDDKGQKVSVTRQGFRTYNEAISEYNKLRAQGTQGYQ	-0.355
HMHDIPDITDLRPLRHTLGLTLAHAAQQLNTTTATISRLERGQHRNDHLATTYRTWLHTHPT	-0.15
HMEILTRQLTHYLHLLPPAQQEVVRGVYLQDQTLQEIADRVQIPLGTVKSRLRLGLSKLREQIEQEHE	-0.916
HMLPAGAAAPLEDGSAPEGYTVKGNADSGLYHEPDGRWYDATVAEFWFKTAADAEAAGFRKAGS	0.121
HMEGFSAGQFVRASVDNTAFYLKRPKGDAVADKLLRRGASMKVISASGDYLKVELDSGEVGFVPPVMVE	0.05
HMGVPVTAPMPGKVLKVTVSVGAAVKNGDLVLVLEAMKMENEIFATANGVVKEIRSREGDTVNSGDVMMVI	-0.533
HMNVWGLSERELEATRLLIEGFSSKEASARMGISPSTVRSLWGRARAKMGVDSIEDARELVA	-0.236
HMSNRFIQFRQRAIDWLNSDRDFNAGILLLEESGFKPGVVAKLKRHGVNGPEAKKRLKFLINELVKAWA	-0.0824
HMEHDTVLSKVFRRLREAHVPLSLDDIYQGLRKTVNNNSEIREKIVTLQERGLVAEILGPKGGKKYVAKPT	-0.105
HMADYYETLGVERTASEEDIKRAYRKMSRKYHPDIAGPEFEEKFKEVNTAYEVLSDPDKRRMYDAGVDPND	0.0489
HMGPSSIVVYVSGAVKTPGVYTLAPGSRVDDAVRAAGGLSERAESAGTNLAAQLSDGEHVHVAAAGE	0.228
HMGFAEFWLAYPKKVGKGEAERKWKTLKPDAGAVLSAVKRQSASEQWRKDGGRYIPNPATWLHQRRWE	-0.0238
HMINIQYSYNDGKETLHNLSPEVIAEKIMDDPNGYHIVWKQGMVGWVNANDIDDIAKLLRQKK	-0.0619
HMIVVMARETSTDDLEAIRERIESRGMVAQINLGVERTVIGVMGSIPPDFKDEMELMNGVVEVVMISK	-0.408
HMFTEIMAERNALIQAIQQNLPPQHIQSILSKKNKFRLEDLTNEELRDVWQWILNQRQAQQHQQQ	-0.171
